First the molecules themselves.
T1: hIL-1 IR (Homo sapiens, UniProt Q14626)
T1 sequence (Q14626 23-422): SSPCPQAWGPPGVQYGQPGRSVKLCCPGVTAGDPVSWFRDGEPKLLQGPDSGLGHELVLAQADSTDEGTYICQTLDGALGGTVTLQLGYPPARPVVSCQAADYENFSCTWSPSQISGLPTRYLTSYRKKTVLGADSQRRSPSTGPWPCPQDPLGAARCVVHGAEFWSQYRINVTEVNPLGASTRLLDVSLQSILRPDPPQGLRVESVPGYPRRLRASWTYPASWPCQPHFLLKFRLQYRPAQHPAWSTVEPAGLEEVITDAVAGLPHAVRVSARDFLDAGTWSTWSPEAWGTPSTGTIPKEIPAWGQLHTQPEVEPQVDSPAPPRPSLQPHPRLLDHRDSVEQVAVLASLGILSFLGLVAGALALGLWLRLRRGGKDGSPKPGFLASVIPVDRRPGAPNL

B1: mAb20: anti-IL-11Rα antibody; VH SEQ ID NO: 231, VL SEQ ID NO: 232; heavy chain Kabat position 31 variant of mAb5 (antibody, V domains shown)
VH: EVQLLESGGGLVQPGGSLRLSCAASGFTFSGYSMTWVRQAPGKGLEWVSSIVPYGDLTQYADSVKGRFTISRDNSKNTLYLQMNSLRAEDTAVYYCAKGPGWGSFDLWGRGTLVTVSS
VL: DIQMTQSPSSLSASVGDRVTITCQASQDINNYLNWYQQKPGKAPKLLIYDASNLQTGVPSRFSGSGSGTDFTFTISSLQPEDIATYYCQQHESQSPTFGPGTKVDIK
modifications: mAb20 VH Chain; mAb20 VL Chain
notes: anti-IL-11Rα antibody; heavy chain Kabat position 31 variant of mAb5
B2: mAb26: anti-IL-11Rα antibody; VH SEQ ID NO: 243, VL SEQ ID NO: 244; heavy chain Kabat position 31 variant of mAb5 (antibody, V domains shown)
VH: B1 VH with G31N
VL: B1 VL
modifications: mAb23 VH Chain; mAb26 VL Chaim
notes: as for B1
B3: mAb22: anti-IL-11Rα antibody; VH SEQ ID NO: 235, VL SEQ ID NO: 236; heavy chain Kabat position 31 variant of mAb5 (antibody, V domains shown)
VH: B1 VH with G31I
VL: B1 VL
modifications: mAb22 VH Chain; mAb22 VL Chain
notes: as for B1
B4: mAb24: anti-IL-11Rα antibody; VH SEQ ID NO: 239, VL SEQ ID NO: 240; heavy chain Kabat position 31 variant of mAb5 (antibody, V domains shown)
VH: B1 VH with G31L
VL: B1 VL
modifications: mAb24 VH Chain; mAb24 VL Chain
notes: as for B1
B5: mAb27: anti-IL-11Rα antibody; VH SEQ ID NO: 245, VL SEQ ID NO: 246; heavy chain Kabat position 31 variant of mAb5 (antibody, V domains shown)
VH: B1 VH with G31P
VL: B1 VL
modifications: mAb27 VH Chain; mAb27 VL Chain
notes: as for B1
B6: mAb25: anti-IL-11Rα antibody; VH SEQ ID NO: 241, VL SEQ ID NO: 242; heavy chain Kabat position 31 variant of mAb5 (antibody, V domains shown)
VH: B1 VH with G31M
VL: B1 VL
modifications: mAb25 VH Chain; mAb25 VL Chain
notes: as for B1
B7: mAb28: anti-IL-11Rα antibody; VH SEQ ID NO: 247, VL SEQ ID NO: 248; heavy chain Kabat position 31 variant of mAb5 (antibody, V domains shown)
VH: B1 VH with G31R
VL: B1 VL
modifications: mAb28 VH Chain; mAb28 VL Chain
notes: as for B1
B8: mAb30: anti-IL-11Rα antibody; VH SEQ ID NO: 251, VL SEQ ID NO: 252; heavy chain Kabat position 31 variant of mAb5 (antibody, V domains shown)
VH: B1 VH with G31T
VL: B1 VL
modifications: mAb30 VH Chain; mAb30 VL Chain
notes: as for B1

Where a chain is given by its changes, count along the chain named.

The target of the experiment is T1, hIL-1 IR. The experiment in a line: Alternate biolayer interferometry assay (AHC biosensors) ranking mAbs 16-32 against mAb5. It counts as binding. Conditions: compared to mAb5. The text has this:
A further series of antibodies were designed in which the residue at Kabat position 31 of the heavy chain was varied (mAbs 16-32). In this case an alternate biolayer interferometry assay was used to initially rank the antibodies compared to mAb5, the closest relative in sequence to mAbs 16-32. MAbs were loaded onto anti-human constant domain (AHC) biosensors (FortdBio) in 10× kinetics buffer consisting of PBS, 0.1% BSA, 0.02% Tween 20 for 120 s to achieve a spectral shift value of 0.8 to 1.2 nm. Association was carried out in the presence of 2-fold dilution series of hIL-1 IR and was allowed to proceed for 120 s. Dilution series started 10 nM. The dissociation in 10× kinetics buffer for 1200 s. Binding kinetic measurements were taken on an Octet RED96e instrument.
As for B1, the qualitative assessment result is on record as “similar”.
Regarding B2, the qualitative assessment result is “decreased”.
On to B3, for which the qualitative assessment result is “similar”.
The same measure for B4: “similar”; for B5: “decreased”.
The same measure for B6: “similar”.
As for B7, the qualitative assessment entry was “similar”.
Take B8: the qualitative assessment result is reported as “decreased”.

The record behind these values is patent US20240425606A1, “ANTI-IL-11RA ANTIBODIES” (Lassen Therapeutics 1, Inc., priority 2021, published 2024).
